The text below walks through data of patent US20200223906A1 (Adimab, published 2020).

In general, Kd refers to a measure of binding affinity in units of concentration. A high value points to weaker binding.

Assay [1] has as its target T1, RSV F subtype B, furin-cleaved ectodomain stabilized in the prefusion conformation (DS-Cav1) (Respiratory syncytial virus subtype B).
T1 construct: extracellular domain; Trimeric soluble antigen; also called Prefusion subtype B
Description: BLI, IgG on AHQ sensor, 100 nM antigen. On the technique in general: BLI is a label-free optical method that tracks binding on a fibre tip over time.

The target in assay [2] is RSV F protein of subtype A (strain A2) on recombinant mKate-RSV virus (Respiratory syncytial virus subtype A …, UniProt P03420 26-574). Description: cell-based or functional assay.
Assay [3] concerns the target RSV F protein of subtype B (18537) on recombinant mKate-RSV virus (Respiratory syncytial virus subtype B …, UniProt P13843 26-574). In words: cell-based or functional assay.

B1: ADI-18931 (antibody, V domains shown)
VH: EVQLVESGGGLQKPGRSLRLSCSASGFTFGDYAMSWFRQAPGKGLEWVGFIRSKAYVGTAEYAASVKGRFTISRDDSKSIAYLHMNSLKTEDTAVYYCTRDDILTGFYDRSYYYGIHVWGQGTTVTVSS
VL: EIVMTQSPVTLSVSPGERATLSCRASQSVNSNLAWYQKKPGQAPRLLIYSASTRATGVPARFSGSGSGTEFTLTVSSLQSEDFAVYYCQQYDNWPPYTFGQGTKVEIK
notes: full-length IgG from yeast; also called Antibody Number 285; Ab # 285
Consider B1, for which the Kd in assay [1] worked out at 0.488 nM. Besides, the “Neut IC50 (µg/ml) subtype A” value in assay [2] was greater than 10 µg/mL. In assay [3], the “Neut IC50 (µg/ml) subtype B” value was greater than 10 µg/mL.

B2: ADI-18905 (antibody, V domains shown)
VH: EVQLVESGPTLVKPSETLSLTCVVSGGSVYRSSNYWAWIRQPPGKGLEWIGSVYHSGNPYSNPSLQSRVSVSIDTSKNQFSLKLYSVTAADSAIYYCACKRADADDVDYVAGLTGFPWYFDVWGRGTLVTVSS
VL: EIVLTQSPSTLSASVGDRVTITCRASQSISSWLAWYQQKPGKTPKLLIYKASTLESGVPSRFSGSGSGTEFTLTISSLQPDDFATYYCQQYHVYFPLTFGGGTKVEIK
B2: in assay [2], the “Neut IC50 (µg/ml) subtype A” value is 0.685 µg/mL. Also, the “Neut IC50 (µg/ml) subtype B” value in assay [3] was 3.68 µg/mL.

B3: ADI-18929 (antibody, V domains shown)
VH: QVQLVQSGGGLVKPGGSLRLSCAASGFTFNDYYMNWIRQAPGKGLEWVSYISSSGETKYYADSVKGRFTISRDNAKNSLYLEMNSLRVEDTAVYYCARDAVIVVGPVAVHYQYYADVWGKGTTVTVSS
VL: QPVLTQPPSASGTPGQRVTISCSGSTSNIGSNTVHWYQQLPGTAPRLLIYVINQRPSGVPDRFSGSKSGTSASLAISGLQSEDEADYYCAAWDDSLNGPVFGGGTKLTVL
For the molecule B3, the “Neut IC50 (µg/ml) subtype A” value in assay [2] came to 0.261 µg/mL. For the same molecule, the “Neut IC50 (µg/ml) subtype B” value in assay [3] amounted to 0.369 µg/mL.

B4: ADI-18901 (antibody, V domains shown)
VH: EVQLVESGAEVKRPGASVKISCKASEYAFTAHYLHWVRQAPDQGLEWMGWISPKSGGTNYAQKFHGRVSMTSDTSISTVYMELSSLTSDDTAVYYCARSSLVGASPNFDFWGQGTLVTVSS
VL: QSVLTQPPSVSAAPGQRVTISCSGSSSNIGNNYVSWYQQLPGTTPKVLIYDNNQRPSGIPDRFSGSKSGTSATLAISGLQTGDEAVYYCGTWDASLSAAMVFGGGTKLTVL
As for B4, the “Neut IC50 (µg/ml) subtype A” value in assay [2] is 5.65 µg/mL. For the same molecule, the “Neut IC50 (µg/ml) subtype B” value in assay [3] stood at 5.76 µg/mL.

B5: ADI-18940 (antibody, V domains shown)
VH: QVQLVQSGAGVKKPGASVRVSCTASGYTFTDYFINWVRQAPGGGLEWMGWVNPLSGATRYAQNFAGRVTMTTDTSITTGYLDLRNLRLDDTAVYFCASQSSPYTPGAMDVWGQGTTVTVSS
VL: DIVMTQSPSSLSASVGDRVSITCRTSQTISGYISWYQKKPGKAPKLLIYAASNMYSGVPSRFSGSESGTDFTLTITSLQPEDFATYFCQLNSGALFTFGPGTKVDIK
notes: full-length IgG from yeast
B5 came in with a Kd in assay [1] of 1.56 nM. Further, the “Neut IC50 (µg/ml) subtype A” value in assay [2] is 0.023 µg/mL. Besides, the “Neut IC50 (µg/ml) subtype B” value in assay [3] came to 0.063 µg/mL.

B6: ADI-18965 (antibody, V domains shown)
VH: QVQLVQSGAEVKKPGASVKISCKASGYPFSSYPMHWVRQAPGQRLEWMGWINVDNENTKYSWKFRGRVTITRDTSASTVYMELSSLISEDTAVYYCGRDWDGAIRVLDYWGQGTLVTVSS
VL: DIVMTQTPDSLAVSLGERATITCKSSQSVLFSSDNKNYLAWYQQKPGQPPKLLIYWASIRESGVPDRFGGSGSGTHFTLTITSVQAADVAVYYCQQYYGNFPTFGQGTRLEIK
For the molecule B6, the “Neut IC50 (µg/ml) subtype A” value in assay [2] is 3.02 µg/mL. The “Neut IC50 (µg/ml) subtype B” value in assay [3] was determined as 6.89 µg/mL.

B7: ADI-18925 (antibody, V domains shown)
VH: QVQLVESGGGVVQPGRSLRLSCAASGFPFSLYAMHWVRQAPGKGLEWVAFISYDGSNKYYADSVKGRFTISRDSSKNTLYLQMDSLTPEDTAVYYCAKPIVGPTTGYFDYWGPGTLVTVSS
VL: EIVLTQSPATLSLSPGERATLSCRASQSVSSYLAWYQQKPGQAPRLLIYDASNRATGIPARFSGSGSGTDFTLTISSLEPEDFAVYYCQQRSNWYTFGQGTKVEIK
Regarding B7, in assay [2], the “Neut IC50 (µg/ml) subtype A” value was greater than 10 µg/mL. In assay [3], the “Neut IC50 (µg/ml) subtype B” value was greater than 10 µg/mL.
